Results from article PMC7959541.

What was measured:
[1] = biological target: Cy5 labeled PDZ14 (engineered yeast SmF variant with a PDZ domain at its C-terminus, 14-mer) (Saccharomyces cerevisiae); assay: dual-color fluorescence cross-correlation spectroscopy
[2] = biological target: Cy5 labeled PDZ14 (engineered yeast SmF variant with a PDZ domain at its C-terminus, 14-mer) (Saccharomyces cerevisiae); assay: fluorescence burst analysis of two-colour confocal trajectories

Work on “Alexa 488 labeled KKETPV14 (engineered yeast SmF variant with the short peptide KKETPV at its C-terminus, 14-mer)” yielded a stoichiometry N (KKETPV14:PDZ14) [1] of 1 and a stoichiometry N (KKETPV14:PDZ14) [2] of 0.99.
